According to the supplement of paper PMC9170038:

System: MS2 coat protein
Assay: apparent KD of MS2 coat protein; designed switch direction (-1 OFF switch, 1 ON switch): 1; higher = weaker reporter binding
Method in brief: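 Transcription of designed RNA switches on Illumina chips was done by stalled E. coli RNA polymerase. SNAP-549-labelled MS2 coat protein was then titrated in doubling steps from 0.7 or 1.5 nM to 3 µM, with steps of 0.8–1.5 h at the lowest and 10–20 min at the highest concentration. The per-design median over clusters of curve-fitted normalised fluorescence is reported as apparent KD.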

[1] = input ligand: microRNA oligo, concentration not stated
[2] = Eterna round: R95, input ligand: microRNA oligo, concentration not stated
[3] = Eterna round: R95, input ligand: FMN 200 uM
[4] = Eterna round: R95, input ligand: none

Sequence | apparent KD of MS2 coat protein (input ligand: FMN 200 uM) [µM] | apparent KD of MS2 coat protein [1] [µM] | apparent KD of MS2 coat protein (input ligand: none) [µM] | apparent KD of MS2 coat protein [2] [µM] | apparent KD of MS2 coat protein [3] [µM] | apparent KD of MS2 coat protein [4] [µM]
AGAGGAGGAGCAGGAUAUGCGAAGAAGAAAGAGGUAGAAGGGCUCAUGGGAUGACAUGAGGAUCACCCAUGUACCGCCCGAGGA [AK SSNG1-V2-8.1] (Eterna round: R96, puzzle: Same State NG 1) | 0.0115 | 0.0464 | 0.297 |  |  | 
GCGCUACAUGAGGAUCACCCAUGUGCGAACGCACGAGGAUAUGCAUGGGCUAAUGCUGGUGCAGAAGGCGUGGCGC [Pin2Pin #8] (puzzle: Same State 1) |  |  |  | 0.0238 |  | 
GGAGCCAAGGCAGGAUAUUCAUAUUAAAUAACAUGAGGAUCACCCAUGUUGGCCAGAAGGCCAUGGGAGAAGGGCCAUGGCUCG [Xeonanis - 13 mod22] (Eterna round: R96, puzzle: Same State NG 2) | 0.0188 | 0.0531 | 0.0872 |  |  | 
GCCGCGUUUCGCGCCUACAUGAGGAUCACCCAUGUUUGUGGGCAGGAUAUCGUCCGCUCUGCGGGCGAGAAGGGCUGUUGUGGG [salish99_SSNG3_R04_024] (Eterna round: R96, puzzle: Same State NG 3) | 0.231 | 0.159 | 0.215 |  |  | 
GGAGAAUAACUAGAGGAUAUCCGAGUGGUAACAUGAGGAUCACCCAUGUGAUGAAAGGAACAUGAGGAGAAGGCUAGAAUGAAGG [Mat - Same State 2 - Mod of JL - D85] (puzzle: Same State 2) |  |  |  | 0.0349 | 0.0373 | 0.0776
UUUAGUUGCGGGCAGGAUAUGUAUUAAAAUACAUGAGGAUCACCCAUGUGAGGUCAUAAAGACCUACAGAAGGGCCAAUCGCGAC [Laonerce - 16] (puzzle: Same State 2) |  |  |  | 0.0648 | 0.0165 | 0.0662
AUAAAACAUGAGGAUCACCCAUGUCAACAAAGUCGAGGAUAUGGGCAAAUAAUAUAAGAACCAGAAGGCGAAUAAU [salish99_ss1_r3_022] (puzzle: Same State 1) |  |  |  | 0.207 | 0.0366 | 0.191
GUUACAUGAGGAUCACCCAUGUAUGUGUGGGAGUAAGUGUCUUAGGAUAUCUAUUAUUUAAUUUUAGAGAAGGAAGAUUGUUGU [JMF's solution 27] (Eterna round: R96, puzzle: Same State NG 3) | 0.138 | 0.105 | 0.12 |  |  | 
AUUGCUUUCGCAGGAUAUGAUGCGAAAAUUGCGUCAGAAGGGUGGAGUAUCUCAUUGCAAGAGGACAUGAGGAUCACCCAUGUC [SameState NG1 #87] (Eterna round: R96, puzzle: Same State NG 1) | 0.0405 | 0.14 | 0.216 |  |  | 
UUACUCAUGUAAGGAUAUGCAGCCGUUUCGGCUGCAGAAGGUACUAUAAUACAUGAGGAUCACCCAUGUCUUUUUAAUUUAGAC [JL SSNG1 1.29] (Eterna round: R96, puzzle: Same State NG 1) | 0.0562 | 0.0307 | 0.0478 |  |  | 
UGCUUCGUGUGAGGAUAUGCUGCCGUUUCGGCUGCAGAAGGUACUAUAAUACAUGAGGAUCACCCAUGUCUGUCGGUUUGCGGG [salish99_SSng1_r04_305-lowA] (Eterna round: R96, puzzle: Same State NG 1) | 0.0464 | 0.0288 | 0.0493 |  |  | 
GGUGGGUUACUACCCACACAUGAGGAUCACCCAUGUAUUGGGAAGGAUAUGGUACCUAUUUGGUACCAGAAGGUCCUGAUGGUG [SS-NG3-LRO15] (Eterna round: R96, puzzle: Same State NG 3) | 1.28 | 0.312 | 1.61 |  |  | 
GGAGCCAAGGCAGGAUAUUCAUAUUAAUUACAUGAGGAUCACCCAUGUUAGGCCAGAAGGCCUUGGGAGAAGGGCCAUGGCUCG [Xeonanis - 13 mod19] (Eterna round: R96, puzzle: Same State NG 2) | 0.0229 | 0.0472 | 0.0606 |  |  | 
